Measurements from the nanobody polyreactivity screen of Harvey et al. (2022).

Assay: yeast display, Sf9 membrane polyspecificity reagent, FACS + sequencing; frameworks hold sequencing errors
Summary of the method: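 Polyreactivity labels are assigned by the sorting gate from which each nanobody was recovered. The gates were low and high (top ~1%), set on anti-HA fluorescence for expression and streptavidin fluorescence for reagent binding. Before sorting, galactose-induced (36–48 hours) yeast display cells were stained for 1 hour at 4 °C with 10% biotinylated, detergent-solubilized Sf9 membrane reagent.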

Sequence | polyreactivity (PSR sort gate)
QVQLVESGGGLVQAGGSLRLSCAASGRTFSWYTMGWYRQAPGNERELVAVINYSGGSTYYADSVKGRFTISRDNAKNTVYLQMTSLKPEDTAVYYCAARNVVTGYRYDYWGQGTQVTVSS | high polyreactivity
QVQLVESGGGLVQAGGSLRLSCAASGRTFSYNAMGWYRQAPGKERELVAAISSGGSTYYADSVKGRFTISRDNAKNTVYLQMNSLKPEDTAVYYCAADSPSVWGYRYDYDYWGQGTQVTVSS | low polyreactivity
QVQLVESGGGLVQAGGSLRLSCAASGRTFSYNAMGWYRQAPGKERELVATISWGGGSTYYADSVKGRFTISRDNAKNTVYLQMNSQKPEDTAVFYCARVGWYAYLIDRDYWGQGSQVTVSS | high polyreactivity
QVQLVESGGGLVQAGGSLRLSCAASGRTFSYNAMGWYRQAPGKERELVAVISASGGSTYYADSVKGRFTISRDNAKNTVYLQMNSLKPEDTAVYYCAKRRSPVERYDYWGQGTQVTVSS | low polyreactivity
QVQLVESGGGLVQAGGSLRLSCAASGRTFSYYAMGWYRQAPGKERELVAAISWSGGSTYYADSVKGRFTISRDNAKNTVYLQMNSLKPEDTAVYYCNAPGYVWKGYDYWGQGTQVTVSS | high polyreactivity
QVQLVESGGGLVQAGGSLRLSCAASGRTFSYYAMGWYRQAPGKERELVAAITDSGDSTYYADSVKGRFTISRDNAKNTVYLQMNSLKPEDTAVYYCAAEIYSYYRFYWYDYWGQGTQVTVSS | high polyreactivity
QVQLVESGGGLVQAGGSLRLSCAASGRTFSYYAMGWYRQAPGKERELVAAITSSGGRTYYADSVKGRFTISRDTAKKSFYFQMYSLKPEDSAVYFFNTYTGQRDFSPFDSWGQGTQVTVTS | high polyreactivity
QVQLVESGGGLVQAGGSLRLSCAASGRTFSYYAMGWYRQAPGKERELVAAITSSGTGTYYADSVKGRFTISRDNAKNTVYLQMNSLKPEDTAVYYCAVLTTSKSRVKLYYWGQGTQVTVSS | high polyreactivity
QVQLVESGGGLVQAGGSLRLSCAASGRTFSYYAMGWYRQAPGKERELVASIRKSGASTYYADSVKGRFTISRDNAKNTVYLQMNSLKPEDTAVYYCNTAGWSFYSGRYDYWGQGTQVTVSS | high polyreactivity
QVQLVESGGGLVQAGGSLRLSCAASGRTFSYYAMGWYRQAPGKERELVAYITSSGGSTYYADSVKGRFTISRDNAKNTVYLQMNSLKPEDTAVYYCATRGGSRARGMDYWGQGTQVTVSS | high polyreactivity
QVQLVESGGGLVQAGGSLRLSCAASGRTFSYYTMGWSRQAPGKERELVAAISWSGGNTYYADSVKGRFTISRDNAKNTVYLQMNSLKPEDTAVYYCAARSVYGSYSGYDYWGQGTQVTVSS | high polyreactivity
QVQLVESGGGLVQAGGSLRLSCAASGRTFSYYTMGWYRQAPGKERELVARISNRGTNTYYADSVKGRFTISRDNAKNTVYLQMNSLKPEDTAVYYCNAAFSVRHLYRYDYWGQGTQVTVSL | low polyreactivity
QVQLVESGGGLVQAGGSLRLSCAASGRTFTFNAMGWYRQAPGKERELVARIDWRGITYADSVKGRFTISRDNAKNTVYLQMNSLKPEDTAVYYCAAVWLHISYYGKYDYWGQGTQVTVSS | low polyreactivity
QVQLVESGGGLVQAGGSLRLSCAASGRTFTGNVMGWYRQAPGKERELVAAISRSGTSTYYADSVKGRFTISRDNAKNTVYLQMNSLKPEDTAVYYCAARRTAGYRSGEYDYWGQGTQVTVSS | high polyreactivity
QVQLVESGGGLVQAGGSLRLSCAASGRTFTGYAMGWYRQAPGKEREFVAAITQRGGSTYYADSVKGRFTISRDNAKNTVYLQMNSLKPEDTAVYYCAASYLTWKRRYDYWGQGTQVTVSS | high polyreactivity
QVQLVESGGGLVQAGGSLRLSCAASGRTFTIYARGWYRQAPGKERELVAAITSGGSTYYADSVKGRFTISRDNAKNTVYLQMNSLKPEDTAVYYCDRGYAVSLVSRYDYWGQGTQVTVSS | low polyreactivity
QVQLVESGGGLVQAGGSLRLSCAASGRTFTKNAMGWYRQAPGKERELVAAISISGGSTYYADSVKGRFTISRDNAKNTVYLQMYSLKPEDTAVYYCAADVVTYLSYTLDYWGQGTQVTVSS | low polyreactivity
QVQLVESGGGLVQAGGSLRLSCAASGRTFTKYAMGWYRQAPGKERELVAGITRRGGNTYYADSVKGRFTISRDNAKNTVYLQMNSLKPEDTAVYYCAKGYDFLRYDYWGQGTQVTVSS | high polyreactivity
QVQLVESGGGLVQAGGSLRLSCAASGRTFTLYAMGWYRQAPGKERELVAAIRWSGSSTYYADSVKGRFTISRDNAKNTVYLQMNSLKPEDTAVYYCAADRAYRRFSQGAYSPWILKYGYWGQGTQVTVSS | high polyreactivity
QVQLVESGGGLVQAGGSLRLSCAASGRTFTNNVMGWYRQAPGKERELVAAITSGGTNYADSVKGRFTISRDNAKNTVYLQMNSLKPEDTAVYYCATDYYDEVTIGYDYWGQGTQVTVSS | low polyreactivity
QVQLVESGGGLVQAGGSLRLSCAASGRTFTNYAMGWYRQAPGKERELVASISNAGSTNYADSVKGRFTISRDNAKNTVYLQMNSLNPEDTAVYYCAADFFAGTQRTFDYWGQGTQVTVSS | high polyreactivity
QVQLVESGGGLVQAGGSLRLSCAASGRTFTPNAMGWYRQAPGKDRELVAAITSTGGRTYYADSVKGRFTISRDNAKNTVYLQMNSLKPDDTAVYYCAVSYRYLRKYGYWGQGTQVTVSS | high polyreactivity

Sequence | polyreactivity (PSR sort gate)
QVQLVESGGGLVQAGGSLRLSCAASGRTFTQYAMGWYRQAPGKERELVAAIDYRGSRTYYADSVKGRFTISRDNAKNTVYLQMNSLKPEDTAFYYCNTVHRFGTYDYWGQGTQVTVSS | high polyreactivity
QVQLVESGGGLVQAGGSLRLSCAASGRTFTRNAMGWYRQAPGKERELVASITNGVSTNYADSVKGRFTISRDNAKNTVYLQMNSLKPEDTAVYYCNKGPLISYAYRYYQPYDYWGQGTQVTVSS | low polyreactivity
QVQLVESGGGLVQAGGSLRLSCAASGRTFTRYAMGWYRQAPGKERELVAAISWSGGSTYYADSVKGRFTISRDNAKNSVYLQMNSLKPEDTAVYYCNAYYYYPEFNYWGLGTQVTVSS | high polyreactivity
QVQLVESGGGLVQAGGSLRLSCAASGRTFTRYAMGWYRQAPGKERELVASISNGGNTYYADSVKGRFTISRDYAKNTVYLQMNSLKPEDTAVYYCAAKWKNSRPDWRGYWGQGTQVTVSS | high polyreactivity
QVQLVESGGGLVQAGGSLRLSCAASGRTFTRYAMGWYRQAPGKERELVASITTGGRTYYADSVKGRFTISRDNAKNTVYLQMNSLKPEDTAVYYCAARTYGGFEYWGQGTQVTVSS | high polyreactivity
QVQLVESGGGLVQAGGSLRLSCAASGRTFTRYAMGWYRQAPGKERELVATINSSGDRTYYADSVKGRFTISRDNAKNTVYLQMNSLKPEDTAVYYCAKRWSPYLYGYWGQGTQVTVSS | high polyreactivity
QVQLVESGGGLVQAGGSLRLSCAASGRTFTRYAMGWYRQAPGPERELVAASRWSGTRTYYAVSVKGRITISRDNAKNTVDLQMNSLTPEDTAVYYCAARDRVYPDYGYWGQGTQVTVSS | high polyreactivity
QVQLVESGGGLVQAGGSLRLSCAASGRTFTRYTMGWYRQAPGKERELVAAISYSGGSTYYADSVKGRFTISRDNAKNTVYLQMNSLKPEDTAVYYCAAASVRWPGYDYWGQGTQVTVSS | high polyreactivity
QVQLVESGGGLVQAGGSLRLSCAASGRTFTRYTMGWYRQAPGKERELVAAITRGGSTYADSVKGRFTISRDNAKNTVYLQMNSMKPEDTAVYYCAAYWGFYPWRAYPYDYWGQGTQVTVSS | high polyreactivity
QVQLVESGGGLVQAGGSLRLSCAASGRTFTRYTSGSYRPAPGKERELVAAIRYSGGSTYYADSVKGRFTISGDNAKNTVYLQMNSLKPEDTAVYYCAARSYYYGFLYRYDYWGQGTQVTVSS | low polyreactivity
QVQLVESGGGLVQAGGSLRLSCAASGRTFTSNAMGWYRQAPGKERELVAAISNRGTRTYYADSVKGRFTISRDNAKNTVYLQMNSLKPEDTAVYYCAASERDQRFKHYYWGQGTQVTVSS | high polyreactivity
QVQLVESGGGLVQAGGSLRLSCAASGRTFTSYAIGWYRQAPGKERELVAAISGSGSRTKYADSVKGRFTISRDNAKNTVYLQMNSLKPEDTAVYYCNADYRHRHDYWGQGTQVTVSS | high polyreactivity
QVQLVESGGGLVQAGGSLRLSCAASGRTFTSYAMGWYRQAPGKERELVAAISGNGVTTYYADSVKGRFTISRDNAKNTLYLQINSLKPEDTAVYYCAAGQRRFGYYYWGQGTQVTVSS | high polyreactivity
QVQLVESGGGLVQAGGSLRLSCAASGRTFTSYAMGWYRQAPGKERELVAAISGSGSRTYYADSVKGRFTISRDNAKNTVYLQMNSLKPEDTAVYYCAVSYTTYYHRYYYWGQGTQVTVSS | high polyreactivity
QVQLVESGGGLVQAGGSLRLSCAASGRTFTVYAMGWYRQAPGKEREFVAAITERGGSTYYADSVKGRFTISRDNAKNTVYLQMNSLKPEDTAVYYCAAVYYWRPGWYVRFDYWGHGTQVTVSS | low polyreactivity
QVQLVESGGGLVQAGGSLRLSCAASGRTFTVYGMGWYRQAPGKEREFVATISRRGGRTYYADSVKGRFTISRDNAKNTVYLHMNSLKPEDTAVYYCNADIGTYVRSGGGDFWGQGTQVTVSS | low polyreactivity
QVQLVESGGGLVQAGGSLRLSCAASGRTFTWYAMGWYRQAPGKERELVAAISKSGGSTYYADSVKGRFTISRDNAKNTVYLQMNSLKPEDTAVYYCNADFYGYFLGYGYWGQGTQVTVSS | low polyreactivity
QVQLVESGGGLVQAGGSLRLSCAASGRTFTYNAMGWYRQAPGKERELVAAISRSGGRTYYADSVKGRFTISRDNAKNTVYLQMNSLKPEDTAVYYCNTDGYYTTAKYGYWGQGTQVTVSS | high polyreactivity
QVQLVESGGGLVQAGGSLRLSCAASGRTFTYNAMGWYRQAPGKERELVATINTSGASTSYADSVKGRFTISRDNAKNTVYLQMNCLKPEDTAVYYCNRDRRYYHRFDYWGQGTQVTVSS | low polyreactivity
QVQLVESGGGLVQAGGSLRLSCAASGRTFTYNVMGWYRQAPGKERELVAAITSGGTNYADSVKGRFTISRDNAKNTVYLQMNSLKPEDTAVYYCATDYYDDVTIGYDYWGQGTQVTVSS | low polyreactivity
QVQLVESGGGLVQAGGSLRLSCAASGRTFTYYAMGWYRQAPGKERELVAAIRYTGGSTHYADSVKGRFTISRDNAKNTVYLQMNSLKPEDKAVYYCAARRAYTRGGTVYFGYYYWGQGTQVTVSS | high polyreactivity
